Reference: the supplement of paper PMC9170038

Test system: MS2 coat protein
Assay: apparent KD of MS2 coat protein; designed switch direction (-1 OFF switch, 1 ON switch): -1; higher = weaker reporter binding
Procedure, shortened: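 On Illumina chips, designed RNA switches with common flanks were made by stalled E. coli RNA polymerase. Titrations with SNAP-549-labelled MS2 coat protein, doubling from 0.7 or 1.5 nM to 3 µM, were done with no input, with 200 uM small-molecule ligand, or with an oligonucleotide input. Apparent KD is the median per design over clusters, from curve fits of normalised cluster fluorescence.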

[1] = Eterna round: R95, input ligand: FMN 200 uM
[2] = Eterna round: R95, input ligand: microRNA oligo, concentration not stated
[3] = Eterna round: R95, input ligand: none
[4] = input ligand: microRNA oligo, concentration not stated

Sequence | apparent KD of MS2 coat protein [1] [nM] | apparent KD of MS2 coat protein [2] [nM] | apparent KD of MS2 coat protein [3] [nM] | apparent KD of MS2 coat protein (input ligand: FMN 200 uM) [nM] | apparent KD of MS2 coat protein (input ligand: none) [nM] | apparent KD of MS2 coat protein [4] [nM]
AGUACUAACACGAGAGUGUUAGUACUAUAAGCUUGUGUUACAUGAGGAUCACCCAUGUCCUCAUAAGCUCGUCUUAU [Mat - Sensor v3 - Turn-off var 2 - D79] (puzzle: Sensor v3, turn-off variant 2) | 124 | 40.5 | 116 | – | – | –
CCGGGUCACGUAAGGAUAUCACGCGCAGACGCUAGUGAGAAGGUACAUGAGGAUCACCCAUGUUCCAUUCGCAG [BmEX4 C.5] (Eterna round: R97, puzzle: Brourd's mod of Exclusion 4) | – | – | – | 17.1 | 13.8 | –
CAAGAUUACUGAGGAUAUCCUAGUUUAUCUCAGGGAGAAGGCGGACUCAACAUGAGGAUCACCCAUGUAAGACGGGUACUAGAG [Ex NG1 #15] (Eterna round: R96, puzzle: Exclusion NG 1) | – | – | – | 84.8 | 43.2 | 68.4
GCAGGAUAAGUGAGGAUAUACCUAUGGAUACAUAGGUAGAAGGCACAUGAGGAUCACCCAUGUUCCUUACCUGC [Fiskers BMX 4 - 66] (puzzle: Brourd's mod of Exclusion 4) | 42 | 11.5 | 13 | – | – | –
GAGUGACAUGAGGAUCACCCAUGUGAGGAUAUCGGACGGACCAAAUUAACAACAAACGCGAGAAGGCACAUCGG [Exclusion 1 V19] (puzzle: Exclusion 1) | – | 74.9 | – | – | – | –
GGCAGACAUGAGGAUCACCCAUGUCAGGAUAUGCGGCGAAGUACAGUUAGUGCAUUUGGUAGAAGGGACAAGGA [Eternabot (L1) Solution 100] (Eterna round: R97, puzzle: Exclusion 1) | – | – | – | 29.8 | 32.5 | –
UUUAAUUUUUUUUUUUUACAAGCUUUUUGCUCGUCUUAUACAUGAGGAUCACCCAUGUGAAUGGAAGAUAAAUUAUC [JMF 8] (puzzle: Sensor v3, turn-off variant 2) | 17.8 | 16.3 | 18.6 | – | – | –
AUUAAAACAUAGGAUAUCGAAUUUAUCAUUUAACGAGAAGGAUGAACAUGAGGAUCACCCAUGUGGUAUCAUGG [Mat - Exclusion 6 - JL Mod - D6] (puzzle: Exclusion 6) | – | 165 | – | – | – | –
AUUUUGUCAGGAUAUGAUUAGUAGGACGAGAGUGCUACUACUUAGAAGGGACAUGAGGAUCACCCAUGUAUUCC [Bring Us a Shrubbery-08] (puzzle: Exclusion 4) | – | 15 | – | – | – | –
AAUAAGGUAGGAUAUACAUGAGGAUCACCCAUGUCCCACCCGUUACCUAUGACCAUAUGUAGAAGGACCAAUAA [Exy#1] (Eterna round: R97, puzzle: Exclusion 3) | – | – | – | 20 | 21.3 | –
AGUUAUUCAGGAUAUGGUGUGUUAUACAUGAGGAUCACCCAUGUGGGUCCUGGUUUGGCCUCAGAAGGGAAUGUUA [salish99_ex5_r4_123] (Eterna round: R97, puzzle: Exclusion 5) | – | – | – | 507 | 600 | –
CUCAUACAUGAGGAUCACCCAUGUGAGGAUAUACUCCGCACCACACAGGUCGGGUAGCGUAGAAGGUAUUGGGU [Eternabot (L1) Solution 85] (Eterna round: R97, puzzle: Exclusion 1) | – | – | – | 96.3 | 168 | –
CCGGUUGGCGCAGGAUAUACAUGAGGAUCACCCAUGUUCAUGAGGAUCACCCAUGAGUUUUUGUUGUAGAAGGGUGGCCCGGCC [A second MS2 with the first and last base exchanged (less A)] (Eterna round: R96, puzzle: Exclusion NG 2) | – | – | – | 23.8 | 29.4 | 15
CAUAAUUUUCGGAAUAUGUACAUGAGGAUCACCCAUGUGACGAGUUACAUGAUUAACAAGCUUUUUGCUCGUCUUAU [Sensor v3 - Turn-off variant 1 - 12] (puzzle: Sensor v3, turn-off variant 1) | 118 | 31.9 | 207 | – | – | –
AAAAAGGCAGGAUAUACGAGUCAAAGAAAAGACAAAAAGGGACAUGAGGAUCACCCAUGUAGAAGGGCCAAAAA [Fiskers exclusion D2 62% 4] (Eterna round: R96, puzzle: Exclusion 2) | – | – | – | – | – | 31.9
ACAUGAGGAUCACCCAUGUCAGGCGGGUCCACUCCGGCUGUUGAGGAUAUAGUCCGGUAUCCGCGCUAGAAGGUGAGGGCCGGC [Aenatbe mod 24] (Eterna round: R96, puzzle: Exclusion NG 3) | – | – | – | 20.6 | 19.9 | 15.4
AGGUGACAUGAGGAUCACCCAUGUAAGGAUAUACGGUUAGUGGAGAGAGGGAAAAGAGGUAGAAGGUACGGAGC [JR_Exclu1_Sub057] (puzzle: Exclusion 1) | – | 156 | – | – | – | –

Sequence | apparent KD of MS2 coat protein [1] [nM] | apparent KD of MS2 coat protein [2] [nM] | apparent KD of MS2 coat protein [3] [nM] | apparent KD of MS2 coat protein (input ligand: FMN 200 uM) [nM] | apparent KD of MS2 coat protein (input ligand: none) [nM] | apparent KD of MS2 coat protein [4] [nM]
GUAAACGAAGAGGAUAUAUGAUAUCAAAGCUUCAUAGAAGGCUUCACAUGAGGAUCACCCAUGUGAUCUUCAAG [Mat - Exclusion 6 - JL Mod - D25] (Eterna round: R97, puzzle: Exclusion 6) | – | – | – | 354 | 71.5 | –
AUCAGCUCGUGAGGAUAUACAUGAUAGAUCGAUUAAUUAAUUAAUUUAACAUGAGGAUCACCCAUGUAGAAGGCACGAGCUGAU [ENG2/1-A3] (Eterna round: R96, puzzle: Exclusion NG 2) | – | – | – | – | – | 30
CCGCAUAAGCAGGAUAUCGUAUCGGAAACGAUACGAGAAGGGUUUACAUGAGGAUCACCCAUGUUCCUUAGCGG [Mat - Exclusion 6 - Eli Mod - D100] (puzzle: Exclusion 6) | 49.9 | 31.5 | 32.6 | – | – | –
UAGAAACAUGAGGAUCACCCAUGUGAGGAUAUGAAAAAGAAAAGAAAAGAAAGAAGAAUCAGAAGGCACAAAGG [salish99-ex1_r3_082] (puzzle: Exclusion 1) | 38.1 | 35.8 | 28.7 | – | – | –
CUCCGGCGUGUAGGAUAUGGUUCCGUUUAGGUUCCAGAAGGACAUGAGGAUCACCCAUGUACAUGUCGUCGGUCGUCACCGGGC [salish99_ExNG1_r04_213] (Eterna round: R96, puzzle: Exclusion NG 1) | – | – | – | 87.3 | 33.1 | 28.8
GAUUAUGCGAGCUUUAGGGACAUGAGGAUCACCCAUGUUCGUCUUAUUGGUCUAAGUGCACUGACAUACCUAAAUCU [JMF 84] (puzzle: Sensor v3, turn-off variant 1) | 20.2 | 31.5 | 19.6 | – | – | –
CCCUCACAUGAGGAUCACCCAUGUAAGGAUAUCUUCGCUUUGACGUUGUUGAAUGCGAAGAGAAGGUGCACGGC [jl-ex1-4.71 ViennaUCT mod] (Eterna round: R97, puzzle: Exclusion 1) | – | – | – | 43 | 20.9 | –
AUAUAGAUAGUCAGGAUAUUCUAGUGAUAACAGUAGGAGAAGGGACAUGAGGAUCACCCAUGUAGAUAGUGCAC [Brourd's EX4 #15] (Eterna round: R97, puzzle: Brourd's mod of Exclusion 4) | – | – | – | 42.9 | 27 | –
UAAGAUUACCGAGGAUAUGGUGGUUUCUAUUAACCAGAAGGCGGACUCAACAUGAGGAUCACCCAUGUAUAAAGGGUAUUAGAU [Ex NG1 #8] (Eterna round: R96, puzzle: Exclusion NG 1) | – | – | – | 134 | 144 | 112
AAGAAGAAGUAAGGAUAUGAAGAUUUGGUGAUAACAUGAGGAUCACCCAUGUGAAAACAAUAAGAUCAGAAGGUAUAAGAAGAA [AK ExNG2-2.1] (Eterna round: R96, puzzle: Exclusion NG 2) | – | – | – | 53.9 | 72.1 | 42.1
AGAGCCGUUGUAGGAUAUGCCCUCGGGUGAUGCCGGUCGCCACAUGAGGAUCACCCAUGUAGCGGGCAGAAGGGCAAACUCAGU [Eternabot solution 43] (Eterna round: R96, puzzle: Exclusion NG 2) | – | – | – | 26.6 | 18.5 | 13.4
GCUCAACAUGAGGAUCACCCAUGUCAGGAUAUGCGAAUUUCAUCAAAAGAUGAAAUUUGCAGAAGGGACUGAGC [Omei Ex1 A31] (Eterna round: R97, puzzle: Exclusion 1) | – | – | – | 27.2 | 22 | –
ACGUUUUUUGAGGAUAUGCGAUAUUUUUUUAUCGUAGAAGGCGAUACAUGAGGAUCACCCAUGUUUAUGGGCAU [LRO-Ex6-19] (puzzle: Exclusion 6) | – | 143 | – | – | – | –
UCGGUGUCAGGAUAUACAUGAGGAUCACCCAUGUAGAGAGAAGAUAGGGAAAGAGUAGGUAGAAGGGACGAGAG [JR_Exclu3_Sub045] (puzzle: Exclusion 3) | 43.7 | 29.1 | 41.7 | – | – | –
UCAUGGUUAGAGGAUAUAUAAUUAGUCAGAACAAUAGAAGGCUAGACAUGAGGAUCACCCAUGUAUGUUGAGGU [JR_Ex6_Sub065] (Eterna round: R97, puzzle: Exclusion 6) | – | – | – | 42.6 | 89.4 | –
GCUGGUCGAGGAUAUACAAUCGUGCUUCGGCACGUAAGGUCACAUGAGGAUCACCCAUGUAGAAGGUGACCAGC [E2/2-B1] (Eterna round: R97, puzzle: Exclusion 2) | – | – | – | 57.7 | 20.7 | –
GUUUUGAGACGGAGAUCCGACAUGAGGAUCACCCAUGUCUCACAAGCUUUUUGCUCGUCUUAUACUCCUCUGUUCUC [Elimod 44 - Jieux - Sensor, turn-off variant 1] (Eterna round: R97, puzzle: Sensor, turn-off variant 1) | – | – | – | 17 | 17.6 | –
